First the molecules themselves.
B1: E3 ubiquitin-protein ligase CCNB1IP1 (Homo sapiens), Q9NPC3 (parent)
chain: MSLCEDMLLCNYRKCRIKLSGYAWVTACSHIFCDQHGSGEFSRSPAICPACNSTLSGKLDIVRTELSPSEEYKAMVLAGLRPEIVLDISSRALAFWTYQVHQERLYQEYNFSKAEGHLKQMEKIYTQQIQSKDVELTSMKGEVTSMKKVLEEYKKKFSDISEKLMERNRQYQKLQGLYDSLRLRNITIANHEGTLEPSMIAQSGVLGFPLGNNSKFPLDNTPVRNRGDGDGDFQFRPFFAGSPTAPEPSNSFFSFVSPSRELEQQQVSSRAFKVKRI

Assay [1] covers variants of B1. The following applies: with aapk2_human PRKAA2, P54646.
Variants of B1 are the subject of the assay “KRT15, P19012”. The following applies: with KRT15, P19012.
The variants in assay [2] derive from B1. The following applies: with keap1_human KEAP1, Q14145.
keap1_human KEAP1, Q14145, sequence (Q14145 whole entry): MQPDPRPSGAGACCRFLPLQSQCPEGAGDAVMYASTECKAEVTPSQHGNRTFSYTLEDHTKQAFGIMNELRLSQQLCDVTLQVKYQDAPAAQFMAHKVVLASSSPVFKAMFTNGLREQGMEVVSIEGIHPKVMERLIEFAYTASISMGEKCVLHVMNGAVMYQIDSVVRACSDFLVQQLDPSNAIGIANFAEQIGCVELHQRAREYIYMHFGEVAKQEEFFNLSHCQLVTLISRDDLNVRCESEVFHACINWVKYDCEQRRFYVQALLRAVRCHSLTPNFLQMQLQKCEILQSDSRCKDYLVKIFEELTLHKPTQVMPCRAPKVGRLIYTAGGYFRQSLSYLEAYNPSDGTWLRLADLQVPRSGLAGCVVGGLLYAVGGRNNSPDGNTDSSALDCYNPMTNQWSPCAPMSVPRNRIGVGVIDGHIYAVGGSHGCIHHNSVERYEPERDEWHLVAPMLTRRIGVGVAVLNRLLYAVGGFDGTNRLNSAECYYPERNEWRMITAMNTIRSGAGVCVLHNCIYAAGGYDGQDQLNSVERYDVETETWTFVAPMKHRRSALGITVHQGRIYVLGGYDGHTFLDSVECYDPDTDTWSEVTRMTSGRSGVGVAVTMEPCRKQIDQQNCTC

KRT15, P19012, sequence (P19012 whole entry): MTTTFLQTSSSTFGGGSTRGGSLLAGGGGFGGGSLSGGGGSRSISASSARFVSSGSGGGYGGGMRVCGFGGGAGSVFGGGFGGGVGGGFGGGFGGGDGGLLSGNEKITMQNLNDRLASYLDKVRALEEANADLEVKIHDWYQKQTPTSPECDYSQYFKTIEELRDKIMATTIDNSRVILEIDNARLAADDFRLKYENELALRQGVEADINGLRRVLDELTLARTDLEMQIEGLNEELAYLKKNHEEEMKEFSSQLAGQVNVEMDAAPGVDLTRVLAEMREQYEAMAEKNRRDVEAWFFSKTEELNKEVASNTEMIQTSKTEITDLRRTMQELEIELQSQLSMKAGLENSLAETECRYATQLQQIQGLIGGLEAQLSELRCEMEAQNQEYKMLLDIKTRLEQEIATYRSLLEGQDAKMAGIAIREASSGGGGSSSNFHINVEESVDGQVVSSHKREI
aapk2_human PRKAA2, P54646, sequence (P54646 whole entry, looked up): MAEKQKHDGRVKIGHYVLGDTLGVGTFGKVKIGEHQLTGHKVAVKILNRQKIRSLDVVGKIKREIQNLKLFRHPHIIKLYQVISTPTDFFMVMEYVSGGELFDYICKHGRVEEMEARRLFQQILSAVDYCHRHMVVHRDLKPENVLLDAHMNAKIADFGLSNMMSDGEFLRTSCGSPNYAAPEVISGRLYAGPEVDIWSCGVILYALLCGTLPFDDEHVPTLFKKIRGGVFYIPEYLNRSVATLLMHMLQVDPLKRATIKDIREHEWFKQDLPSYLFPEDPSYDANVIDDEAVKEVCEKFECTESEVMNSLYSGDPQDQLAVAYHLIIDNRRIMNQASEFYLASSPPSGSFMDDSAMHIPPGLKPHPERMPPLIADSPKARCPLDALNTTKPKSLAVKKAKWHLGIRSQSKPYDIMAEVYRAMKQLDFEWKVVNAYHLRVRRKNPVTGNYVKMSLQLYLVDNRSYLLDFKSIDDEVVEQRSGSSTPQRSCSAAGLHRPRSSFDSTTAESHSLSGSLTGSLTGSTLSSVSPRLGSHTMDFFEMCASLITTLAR

Turning to MSLCEDMLLCNYRKCRIKLSGYAWVTACSHIFCDQHGSGEFSRSPAICPACNSTLSGKLDIVRTELSPSEEYKAMVLAGLRPEIVLDISSRALAFWTYQVHQERLYQEYNFSKAEGHLKQMEKIYTQQIQSKDVELTSMKGEVTSMKKVLEEYKKKFSDISEKLMERNRQYQKLQGLYDSLRLRNITIANHEGTLEPSMIAQSGVLGFPLGDNSKFPLDNTPVRNRGDGDGDFQFRPFFAGSPTAPEPSNSFFSFVSPSRELEQQQVSSRAFKVKRI [N212D], the “effect of a mutation on the interaction” value in assay [1] was “with no effect”; with KRT15, P19012, “with no effect”; in assay [2] it was “with no effect”.

As to MSLCEDMLLCNYRKCRIKLSGYAWVTACSHIFCDQHGSGEFSRSPAICPACNSTLSGKLDIVRTELSPSEEYKAMVLAGLRPEIVLDISSRALAFWTYQVHQERLHQEYNFSKAEGHLKQMEKIYTQQIQSKDVELTSMKGEVTSMKKVLEEYKKKFSDISEKLMERNRQYQKLQGLYDSLRLRNITIANHEGTLEPSMIAQSGVLGFPLGNNSKFPLDNTPVRNRGDGDGDFQFRPFFAGSPTAPEPSNSFFSFVSPSRELEQQQVSSRAFKVKRI [Y106H], the “effect of a mutation on the interaction” value is on record as “with no effect” in assay [1]; “disrupting interaction strength” with KRT15, P19012; “with no effect” in assay [2].

MSLCEDMLLCNYRKCRIKLSGYAWVTACSHIFCDQHGSGEFSRSPAICPACNSTLSGKLDIVRTELSPSEEYKAMVLAGLRPEIVLDISSRALAFWTYQVHQEHLYQEYNFSKAEGHLKQMEKIYTQQIQSKDVELTSMKGEVTSMKKVLEEYKKKFSDISEKLMERNRQYQKLQGLYDSLRLRNITIANHEGTLEPSMIAQSGVLGFPLGNNSKFPLDNTPVRNRGDGDGDFQFRPFFAGSPTAPEPSNSFFSFVSPSRELEQQQVSSRAFKVKRI [R104H]: the “effect of a mutation on the interaction” value in assay [1] was “disrupting interaction strength”; with KRT15, P19012 it was “with no effect”; in assay [2] it was “with no effect”.

Take MSLCEDMLLCNYRKCRIKLSGYAWVTACSHIFCDQHGSGEFSRSPAICPACNSTLSGKLDIVRTELSPSEEYKAMVLAGLRPEIVLDISSRALAFWTYQVHQERLYQEYNFSKAEGHLKQMEKIYTQQIQSKDVELTSMKGEVTSMKKVLEEYKKKFSDISEKLMERNRQYQKLQGLYDSLRLRNIAIANHEGTLEPSMIAQSGVLGFPLGNNSKFPLDNTPVRNRGDGDGDFQFRPFFAGSPTAPEPSNSFFSFVSPSRELEQQQVSSRAFKVKRI [T187A]: the “effect of a mutation on the interaction” value in assay [1] is “with no effect”; with KRT15, P19012, “with no effect”; in assay [2] it was “with no effect”.

(Values after IntAct's records for PubMed 31515488.)
